# Experimental data as given in IntAct's records for PubMed 15670823.
# Biological target: cnkr1_human CNKSR1 (UniProt Q969H4)
# Sequence (Q969H4 whole entry): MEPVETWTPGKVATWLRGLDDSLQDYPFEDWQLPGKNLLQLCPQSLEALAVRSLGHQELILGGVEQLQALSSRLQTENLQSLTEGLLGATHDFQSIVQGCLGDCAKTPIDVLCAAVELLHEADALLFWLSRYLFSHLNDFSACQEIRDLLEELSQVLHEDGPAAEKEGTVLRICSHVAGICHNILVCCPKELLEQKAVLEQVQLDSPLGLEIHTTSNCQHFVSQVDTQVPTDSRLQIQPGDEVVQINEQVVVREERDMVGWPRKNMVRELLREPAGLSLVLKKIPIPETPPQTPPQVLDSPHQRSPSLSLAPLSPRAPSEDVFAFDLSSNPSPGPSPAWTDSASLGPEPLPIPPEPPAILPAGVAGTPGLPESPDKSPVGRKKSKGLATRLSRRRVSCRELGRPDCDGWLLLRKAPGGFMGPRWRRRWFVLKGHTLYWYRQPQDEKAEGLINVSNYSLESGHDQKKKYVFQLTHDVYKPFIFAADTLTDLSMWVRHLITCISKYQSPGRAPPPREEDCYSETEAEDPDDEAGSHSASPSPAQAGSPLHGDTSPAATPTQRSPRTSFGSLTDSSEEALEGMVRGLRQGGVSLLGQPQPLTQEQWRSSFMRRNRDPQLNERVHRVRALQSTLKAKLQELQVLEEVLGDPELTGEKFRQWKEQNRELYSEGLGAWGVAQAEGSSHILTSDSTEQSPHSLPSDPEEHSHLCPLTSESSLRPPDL
substance,measurement,value
"Rho-related GTP-binding protein RhoC (Homo sapiens), P08134 G14V",effect of a mutation on the interaction,increasing interaction
